According to patent US7138249B2, “Screening method” (Takeda Pharmaceutical Company Limited, priority 2000, dated 2006):

Molecular target: T1, TGR-1-expressing CHO cells (Homo sapiens, UniProt Q9GZQ4, A395T)
T1 construct: expressed in transfected cells; host or cells: CHO cells
Assay: Site sensor assay of extracellular acidification rate in TGR-1-expressing CHO cells versus mock CHO cells
Type: cell-based
Conditions: exposed to the cells for 7 minutes and 2 seconds; step-wise decreased concentrations; compared with mock CHO cells; 3 cycles before exposure set as 100%
Description: In the site sensor assay, pig Neuromedin U-8 at the concentrations indicated in FIG. 1 was reacted to TGR-1-expressing CHO cells (●) and mock CHO cells (◯) for 7 minutes and 2 seconds. The maximum of acidification rate during the reaction was plotted.
[10] TGR-1-expressing cells changes extracellular pH (acidification rate) in response to Neuromedin U. By measuring such change with a site sensor device (Molecular Device), the activity of Neuromedin U can be measured. The details of screening method for the compound that alters the binding between Neuromedin U and TGR-1 by measuring the extracellular pH change with the site sensor device are as follows.
TGR-1-expressing cells are cultivated in a capsule of the site sensor over night. […] After the pH becomes stable, measured is the pH change of the medium caused by refluxing the medium containing Neuromedin U or Neuromedin U and a test compound on the cells. An influence of the compound that alter the binding of Neuromedin U and TGR-1 can be measured by comparing the change of extracellular pH in TGR-1-expressing cells with that by the single administration of Neuromedin U. The compound that inhibits the change of extracellular pH by administrating Neuromedin U can be selected as a candidate substance that is capable of altering the binding property between Neuromedin U and TGR-1. […]

T1 sequence (Q9GZQ4 whole entry A395T): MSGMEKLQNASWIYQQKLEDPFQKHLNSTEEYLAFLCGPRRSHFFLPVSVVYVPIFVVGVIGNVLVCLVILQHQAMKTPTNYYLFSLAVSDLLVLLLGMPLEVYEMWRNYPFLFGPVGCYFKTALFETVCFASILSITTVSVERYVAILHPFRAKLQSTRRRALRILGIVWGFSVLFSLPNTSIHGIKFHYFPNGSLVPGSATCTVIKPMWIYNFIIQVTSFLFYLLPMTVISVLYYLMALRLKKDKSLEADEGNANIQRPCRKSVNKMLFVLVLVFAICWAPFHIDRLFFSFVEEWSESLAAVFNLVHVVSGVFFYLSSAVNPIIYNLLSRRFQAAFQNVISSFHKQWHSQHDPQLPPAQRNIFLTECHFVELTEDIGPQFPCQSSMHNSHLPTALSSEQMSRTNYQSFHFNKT

## Pig Neuromedin U-8: Pig Neuromedin U-8 peptide of 8 amino acid residues (BACHEM, H-5505, SEQ ID NO:5), ligand of TGR-1
  TGR-1 receptor-specific cell-stimulating activity (peak acidification rate, rate of change in extracellular pH): reacted to Neuromedin U in a specific and does-dependent manner
